± gives the uncertainty stated by the source.

This series is described as follows: amyloid nucleation score (Sup35N fusion, yeast selection) (log enrichment); library NNK3; higher = more nucleation; inactive = no reads after selection. The gist of the method:
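Psi-negative yeast expressed Sup35N fused to peptides of 20 random codons. They were induced 24 hours with 100 μM copper sulfate, grown 7 days at 30°C without adenine and uracil, and their plasmid inserts from input and output were Illumina-sequenced. The nucleation score is the DiMSum log enrichment of output over input reads, centred on the mode score of non-aggregating sequences. Sequences with under 100 input reads were excluded.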
As to DERKPVGSHDGYSYVSVVTR, the amyloid nucleation score result is “inactive”.
The value for DFDFQIYC was 0.507 ± 0.25; that for DFDNLFYTTLNSQFPRTRFV was “inactive”.
On to DFGVGN, for which the amyloid nucleation score entry is “inactive”.
The value for DFKILKVHKSRSSNSGSEDW was “inactive”; that for DFLVPIKARNYCLNVGPNTY was “inactive”; that for DFPIGYHHNVMI was “inactive”.
To DFRLLWVQTMSFCLNYQAKL belongs “inactive”.
The value for DFSKVNDQTADSYMWCSVDS was “inactive”.
DFSNILLGTNQNNAVSAGSG: the amyloid nucleation score entry was “inactive”.
In the case of DFSSCCDHPFIVI, the amyloid nucleation score was 0.346 ± 0.75.
Turning to DFSYRENYVPIDGIRLTVFW, the amyloid nucleation score result was “inactive”.
To DGCVEELWRGRVLMKMFTHS belongs “inactive”; to DGGYFGNSWFIHGDSLFQMG, “inactive”; to DGHKCCTG, “inactive”.
The value for DHNARSVCTSNHSMAKRMFG was “inactive”; that for DHVLNRPYYDNNLKYYDTWL was “inactive”; that for DIAREVCSTCLKV was “inactive”.
Consider DIDTLYTTIEKCFEDIT, for which the amyloid nucleation score result is “inactive”.
For the substance DIELLGKARGYSLEQG, the amyloid nucleation score result was “inactive”.
Regarding DIEYEY, the amyloid nucleation score entry was “inactive”.
The value for DIFGKRRLCI was “inactive”; that for DIFWYTASNYYIIYNAYYPA was 0.709 ± 0.14.
The value for DIMLYSWITCIMSSAPPRDN was 1.74 ± 0.11.
For DIRYLNNFDSCQYGRGFLAA, the amyloid nucleation score result was “inactive”.
The value for DISKFNDSLSPSELSGLIFS was “inactive”; that for DITAG was “inactive”.
As to DITRMVNNKFIWSSVSGLAC, the amyloid nucleation score entry was “inactive”.
Substance DIVIFVEVNHWFLMGMSHKT had an amyloid nucleation score of 0.999 ± 0.088.
To DKFMWVGNSCVHSD belongs “inactive”; to DKGFINCVSGSGDHVTCGGS, “inactive”; to DKRDNMYICVCRYCHETWCI, -0.397 ± 0.66.
To DKTCKVDWMSFTSHDF belongs “inactive”.
With DKVIHVAGFKVIDCHSSRIR, the amyloid nucleation score result is “inactive”.
Turning to DKWFMSVPIISTRICGGCLG, the amyloid nucleation score entry is “inactive”.
To DLFDSRVVSSDAVSCYYAAS belongs “inactive”; to DLFISPKFVQ, “inactive”; to DLFWLGFNWHLGCRFYVGAN, “inactive”.
For DLHVWLGVKQ, the amyloid nucleation score result is “inactive”.
In the case of DLKWNVRHGCISKTARGFVT, the amyloid nucleation score result is “inactive”.
DLLQVLPCVLDSYGARAVRC: the amyloid nucleation score entry was “inactive”.
To DLLWLLFGLTSDLQFFIRYK belongs “inactive”; to DLLYYLRSCDFCCCMDTS, “inactive”.
DLNIKYMVWACTSVRDCRYY: the amyloid nucleation score is 1.01 ± 0.085.
Take DLNLVMSSGSRDRLNSLLRR: the amyloid nucleation score entry was “inactive”.
The value for DLPVGLWKQESLSAGMYNSW was “inactive”; that for DLRLFFRRRGISQLDC was 0.356 ± 0.26.
The value for DLVVNGSFNTDTCFETVSVH was “inactive”; that for DMIYMLVAFARFIYLDTCIR was “inactive”.
For DMQHPFDFKRQ, the amyloid nucleation score entry was “inactive”.
Turning to DNARCSLHFYNSCWISVWKY, the amyloid nucleation score result was “inactive”.
The value for DNAVVEEYIIEVAKSFWTDG was “inactive”.
To DNDQNGVREVERGVLTLSSV belongs “inactive”.
As for DNEEKLIGRSL, the amyloid nucleation score entry is “inactive”.
As for DNKLDNRYLGYRFRCTTFHF, the amyloid nucleation score result is “inactive”.
Take DNKSL: the amyloid nucleation score result was “inactive”.
With DNPTYRYTICGMTLEHPKEE, the amyloid nucleation score result was “inactive”.
On to DPSPGYLLSY, for which the amyloid nucleation score entry is “inactive”.
To DPVEIRG belongs “inactive”.
For DQGLLRLMDTWLCMGVRQPS, the amyloid nucleation score entry is “inactive”.
The value for DRHLAINERARLVAWFYYDF was “inactive”.
For DRIGVQ, the amyloid nucleation score entry is “inactive”.
DRISSNDMCGWESGVISIHD: the amyloid nucleation score result is “inactive”.
For DRNAEELWCTRLLCYESCRT, the amyloid nucleation score entry was “inactive”.
The value for DRRLPIKPHVFVYSCNSICM was 0.921 ± 0.17.
To DRYMRLCVFGYKYVSYG belongs “inactive”; to DRYYDSLC, “inactive”; to DSCQKVVWIGSGEVRKAWRY, “inactive”.
Take DSDKNPHGVLSSIGCMYVRS: the amyloid nucleation score entry was “inactive”.
Consider DSFLVYIKSCIIILTGLNLY, for which the amyloid nucleation score result was “inactive”.
Turning to DSGKDKF, the amyloid nucleation score entry is “inactive”.
As for DSSNGFICR, the amyloid nucleation score result is “inactive”.
To DSSSLRSNVLVTVCVLVSSI belongs 0.375 ± 0.22; to DSTVTSE, “inactive”; to DSVFCVRLAKLVGLHSSF, “inactive”.
For DSYDLYIVD, the amyloid nucleation score result is “inactive”.
Turning to DTDNWVLTDKTTGCSAVNGG, the amyloid nucleation score result is “inactive”.
To DTESWNCFFYRDYYSGQILK belongs “inactive”; to DTEVHQNRFRMFGACDRERK, “inactive”.
To DTGDCVPGVLSRYLMIWDG belongs “inactive”; to DTQSKTRRV, “inactive”; to DTVKKVYSYYMTLNYVEPLP, “inactive”.
Regarding DVFVHHDM, the amyloid nucleation score entry is “inactive”.
DVITIEYVCF: the amyloid nucleation score entry is “inactive”.
The value for DVNHVMNMNIGSNRN was “inactive”.
For the substance DVPSSSSMAFGIWLGLLCLD, the amyloid nucleation score result is “inactive”.
Take DVRMLRLMVRELYC: the amyloid nucleation score entry was “inactive”.
The value for DVYGDGCSCYSVKYTCDRCQ was “inactive”; that for DWFSAVR was “inactive”; that for DWRMLRGFYLHINCMLSFQG was “inactive”.
Turning to DWVGRYSVSMWILIGRGSLW, the amyloid nucleation score entry is “inactive”.
The value for DYCGKRYPSASVKWPECFRG was “inactive”; that for DYDRIR was “inactive”; that for DYDYTRFPVITV was “inactive”.
Regarding DYEHSGSCKIDFVTL, the amyloid nucleation score result is “inactive”.
On to DYESMTCNVSSDTVPFQQA, for which the amyloid nucleation score result is “inactive”.
DYFEYCRRSKRFPKKDQPVN gave an amyloid nucleation score of -0.638 ± 0.84.
As for DYMLLWNCVLVILFN, the amyloid nucleation score was determined as 0.323 ± 0.45.
The value for DYNSCCSEREVGKKEYTKNN was “inactive”; that for DYTCACLRVRI was -0.047 ± 0.98.
For the substance DYVWADLFCWASGSYLDGEC, the amyloid nucleation score entry is “inactive”.
Substance EAFSSHKNFNVTCFPK registered an amyloid nucleation score of 1.77 ± 0.11.
To EALGKSFLVKFKTIKYLRLA belongs “inactive”.
To EAPFDHPLYLRDLY belongs “inactive”; to ECGWNMFCDRAHMSLGFYSM, “inactive”.
On to ECRHSEWTEYFPSMRFMQAY, for which the amyloid nucleation score result is “inactive”.
The value for ECYLEIASDSYINLKFARIE was 0.019 ± 0.73.
The value for ECYVR was “inactive”; that for EDGLGSYFNKKVNATCLNLA was “inactive”.
The value for EDKGYWNLQAIEIVIQYGGR was 0.225 ± 0.43.
As to EDMVARGSLSKGHWKDLAT, the amyloid nucleation score entry is “inactive”.
The value for EELLRGFGAVGSWLNLSLEV was “inactive”.
Consider EFCVYMSNGGKNLRTRTWAQ, for which the amyloid nucleation score came out at 0.54 ± 0.31.
The value for EFIGGRAMLYEEWYMGVSSM was “inactive”; that for EFLPKWDMQARDVTTLFGCP was “inactive”.
Turning to EFLPSCICDGKFISSLVCEP, the amyloid nucleation score result is “inactive”.
As to EFSKHFPCWHRNSVAYYEIR, the amyloid nucleation score entry was “inactive”.
The value for EFTFWWCCDRYSRAELTCRR was “inactive”; that for EFYGVVSRVPYERTPGTKVE was “inactive”.
EGGDHCMNGHCVCRVGWLWA: the amyloid nucleation score entry is “inactive”.
Substance EGGLDFVFLYYGIICWVVAA registered an amyloid nucleation score of 0.282 ± 0.74.
EGHHPVGGGLLIFASLT: the amyloid nucleation score entry was “inactive”.
The value for EGRCMRKCARVNGSWAMKWM was “inactive”.
To EGRWTCPFGGWTESFGSLYW belongs “inactive”; to EGSDIA, “inactive”; to EGYQVFFNDLVLTLVMRVEV, “inactive”.
To EGYRFCCGMLIN belongs “inactive”.
As to EHLPSSHP, the amyloid nucleation score result was “inactive”.
For EHSNNFTHNYVFWIGIGLAC, the amyloid nucleation score result was “inactive”.
For EHYVDCVGDVAVRDVLVGAS, the amyloid nucleation score result is “inactive”.
